Data taken from patent US20230212549A1, “COMPOUNDS COMPRISING A […] LIGAND AND USE THEREOF” (priority 2021, published 2023).
Bridge positions count the residues as written; N and C are the ends.

T1: Caspase-3, P42574
T1 chain: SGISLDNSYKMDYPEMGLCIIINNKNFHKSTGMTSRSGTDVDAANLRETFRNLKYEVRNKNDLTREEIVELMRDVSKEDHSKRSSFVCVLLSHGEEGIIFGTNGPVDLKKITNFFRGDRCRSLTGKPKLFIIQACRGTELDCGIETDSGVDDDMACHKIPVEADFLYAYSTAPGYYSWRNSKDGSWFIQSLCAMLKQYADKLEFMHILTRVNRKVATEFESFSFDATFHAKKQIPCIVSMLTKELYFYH

T2: Caspase-6, P55212
T2 chain: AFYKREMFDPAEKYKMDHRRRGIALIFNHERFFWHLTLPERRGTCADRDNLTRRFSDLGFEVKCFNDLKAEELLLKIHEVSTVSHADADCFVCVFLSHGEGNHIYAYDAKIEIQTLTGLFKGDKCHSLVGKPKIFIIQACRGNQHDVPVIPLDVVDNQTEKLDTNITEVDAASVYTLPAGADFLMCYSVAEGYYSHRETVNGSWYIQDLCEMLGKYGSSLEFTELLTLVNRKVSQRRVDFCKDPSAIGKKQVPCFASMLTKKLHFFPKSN

T3: PDE4D2 (h) (human), Q08499
T3 chain: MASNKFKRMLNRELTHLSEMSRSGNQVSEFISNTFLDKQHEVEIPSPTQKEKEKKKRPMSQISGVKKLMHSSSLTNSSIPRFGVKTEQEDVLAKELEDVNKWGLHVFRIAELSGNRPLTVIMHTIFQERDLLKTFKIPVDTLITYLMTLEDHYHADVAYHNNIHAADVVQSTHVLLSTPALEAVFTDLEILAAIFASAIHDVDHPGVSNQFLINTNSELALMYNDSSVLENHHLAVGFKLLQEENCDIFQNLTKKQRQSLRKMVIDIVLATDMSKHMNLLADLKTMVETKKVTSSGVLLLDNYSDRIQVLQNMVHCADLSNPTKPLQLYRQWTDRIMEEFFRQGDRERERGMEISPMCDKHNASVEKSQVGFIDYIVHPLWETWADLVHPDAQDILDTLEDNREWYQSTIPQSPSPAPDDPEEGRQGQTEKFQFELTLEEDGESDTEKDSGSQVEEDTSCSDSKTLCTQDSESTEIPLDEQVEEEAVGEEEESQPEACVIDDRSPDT

T4: Ubiquitin carboxyl-terminal hydrolase 8, P40818
T4 chain: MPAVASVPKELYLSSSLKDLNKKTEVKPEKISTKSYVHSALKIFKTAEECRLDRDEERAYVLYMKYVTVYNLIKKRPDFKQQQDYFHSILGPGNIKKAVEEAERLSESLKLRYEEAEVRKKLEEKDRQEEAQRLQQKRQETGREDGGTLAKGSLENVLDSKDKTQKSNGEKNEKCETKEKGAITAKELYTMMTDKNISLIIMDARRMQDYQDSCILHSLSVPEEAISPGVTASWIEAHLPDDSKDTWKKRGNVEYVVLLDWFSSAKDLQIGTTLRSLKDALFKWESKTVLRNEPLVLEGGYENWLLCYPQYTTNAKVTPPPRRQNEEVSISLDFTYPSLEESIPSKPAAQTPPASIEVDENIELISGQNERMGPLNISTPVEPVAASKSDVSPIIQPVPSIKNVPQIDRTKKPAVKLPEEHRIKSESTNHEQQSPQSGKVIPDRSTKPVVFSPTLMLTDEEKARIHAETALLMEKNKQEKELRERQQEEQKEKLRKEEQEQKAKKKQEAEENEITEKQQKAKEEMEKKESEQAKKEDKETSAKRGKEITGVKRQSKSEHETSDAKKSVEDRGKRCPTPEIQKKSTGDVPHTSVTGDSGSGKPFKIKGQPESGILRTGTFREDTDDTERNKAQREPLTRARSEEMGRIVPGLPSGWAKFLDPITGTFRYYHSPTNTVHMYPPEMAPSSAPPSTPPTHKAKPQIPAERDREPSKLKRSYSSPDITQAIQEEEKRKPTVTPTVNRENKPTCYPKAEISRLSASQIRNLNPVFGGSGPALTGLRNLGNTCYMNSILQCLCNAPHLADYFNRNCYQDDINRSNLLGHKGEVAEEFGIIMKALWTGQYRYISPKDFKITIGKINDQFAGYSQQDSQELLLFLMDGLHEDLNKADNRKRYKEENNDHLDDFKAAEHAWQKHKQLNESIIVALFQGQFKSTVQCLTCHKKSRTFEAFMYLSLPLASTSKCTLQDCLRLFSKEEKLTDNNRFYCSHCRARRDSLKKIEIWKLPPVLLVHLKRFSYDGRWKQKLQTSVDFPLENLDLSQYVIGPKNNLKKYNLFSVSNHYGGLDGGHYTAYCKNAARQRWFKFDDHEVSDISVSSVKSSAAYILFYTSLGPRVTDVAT

B1: Hex-[Cys(tMeBn(DOTA-AET))-Pro-Pro-Thr-Gln-Phe-Cys]-OH (peptide)
peptide: Hex-CPPTQFC-OH
modifications: bridge 1-7; not fully specified (bridges); printed as Hex-[Cys(tMeBn(DOTA-AET))-Pro-Pro-Thr-Gln-Phe-Cys]-OH
B2: Hex-[Cys(tMeBn(DOTA-PP))-Pro-Pro-Thr-Gln-Phe-Cys]-Asp-NH2 (peptide)
peptide: Hex-CPPTQFCD-NH2
modifications: bridge 1-7; not fully specified (bridges); printed as Hex-[Cys(tMeBn(DOTA-PP))-Pro-Pro-Thr-Gln-Phe-Cys]-Asp-NH2

How the values were obtained:
Experiment in all cases: cell-based or functional assay
Caspase-3, P42574 = molecular target: T1, Caspase-3, P42574
Caspase-6, P55212 = molecular target: T2, Caspase-6, P55212
Cathepsin B, P07858 = molecular target: Cathepsin B, P07858
Cathepsin L, P07711 = molecular target: Cathepsin L, P07711
Chain of Cathepsin L, P07711 (P07711 114-333 limits assumed): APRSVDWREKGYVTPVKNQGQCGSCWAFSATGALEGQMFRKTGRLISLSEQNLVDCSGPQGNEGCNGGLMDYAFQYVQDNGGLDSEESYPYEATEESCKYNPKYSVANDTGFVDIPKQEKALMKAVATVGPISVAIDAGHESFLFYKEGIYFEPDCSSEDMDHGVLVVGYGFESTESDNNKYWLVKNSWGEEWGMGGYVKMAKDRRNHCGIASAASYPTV

Cathepsin S, P25774 = molecular target: Cathepsin S, P25774
Chain of Cathepsin S, P25774 (P25774 115-331 limits assumed): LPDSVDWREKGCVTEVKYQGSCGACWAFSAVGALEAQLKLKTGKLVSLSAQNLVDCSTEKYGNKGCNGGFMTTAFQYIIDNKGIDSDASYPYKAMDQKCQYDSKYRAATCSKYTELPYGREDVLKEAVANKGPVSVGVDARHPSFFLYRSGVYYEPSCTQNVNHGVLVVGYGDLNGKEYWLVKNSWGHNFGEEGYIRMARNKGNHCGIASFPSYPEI

Cathepsin V, O60911 = molecular target: Cathepsin V, O60911
Chain of Cathepsin V, O60911 (O60911 114-334 limits assumed): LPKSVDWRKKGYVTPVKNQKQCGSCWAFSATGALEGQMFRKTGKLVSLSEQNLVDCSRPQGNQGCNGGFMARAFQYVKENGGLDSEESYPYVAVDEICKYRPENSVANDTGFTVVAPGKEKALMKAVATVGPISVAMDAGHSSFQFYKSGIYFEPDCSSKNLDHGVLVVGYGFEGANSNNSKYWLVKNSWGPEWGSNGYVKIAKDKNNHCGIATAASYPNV

DPP8, Q6V1X1 = molecular target: DPP8, Q6V1X1
Chain of DPP8, Q6V1X1 (Q6V1X1 whole entry): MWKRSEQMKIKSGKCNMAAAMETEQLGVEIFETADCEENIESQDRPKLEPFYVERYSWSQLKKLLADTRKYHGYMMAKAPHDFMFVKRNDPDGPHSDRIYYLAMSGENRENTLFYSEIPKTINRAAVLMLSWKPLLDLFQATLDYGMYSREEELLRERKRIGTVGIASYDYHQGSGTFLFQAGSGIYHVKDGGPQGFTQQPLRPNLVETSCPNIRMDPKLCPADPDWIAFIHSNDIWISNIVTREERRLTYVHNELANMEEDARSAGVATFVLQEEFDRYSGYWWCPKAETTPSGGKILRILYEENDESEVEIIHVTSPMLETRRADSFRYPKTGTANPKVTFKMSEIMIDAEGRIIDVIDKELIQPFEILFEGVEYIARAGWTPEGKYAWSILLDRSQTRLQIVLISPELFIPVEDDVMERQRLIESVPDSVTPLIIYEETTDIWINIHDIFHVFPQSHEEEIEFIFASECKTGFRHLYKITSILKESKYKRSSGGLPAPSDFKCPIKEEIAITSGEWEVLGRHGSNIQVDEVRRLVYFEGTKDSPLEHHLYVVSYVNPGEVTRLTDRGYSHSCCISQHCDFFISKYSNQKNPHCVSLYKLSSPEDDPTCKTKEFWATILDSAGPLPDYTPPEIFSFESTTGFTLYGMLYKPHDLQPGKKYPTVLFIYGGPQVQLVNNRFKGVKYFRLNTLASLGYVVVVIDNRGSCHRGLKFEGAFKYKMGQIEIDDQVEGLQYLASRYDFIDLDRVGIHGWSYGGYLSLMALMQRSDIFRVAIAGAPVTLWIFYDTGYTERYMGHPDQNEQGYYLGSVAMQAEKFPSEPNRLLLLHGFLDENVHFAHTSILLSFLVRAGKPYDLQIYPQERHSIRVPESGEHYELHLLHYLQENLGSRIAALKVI

DPP9, Q86TI2 = molecular target: DPP9, Q86TI2
[1] = molecular target: PDE3A (h) (human), Q14432
Chain of PDE3A (h) (human), Q14432 (Q14432 669-1141 limits assumed): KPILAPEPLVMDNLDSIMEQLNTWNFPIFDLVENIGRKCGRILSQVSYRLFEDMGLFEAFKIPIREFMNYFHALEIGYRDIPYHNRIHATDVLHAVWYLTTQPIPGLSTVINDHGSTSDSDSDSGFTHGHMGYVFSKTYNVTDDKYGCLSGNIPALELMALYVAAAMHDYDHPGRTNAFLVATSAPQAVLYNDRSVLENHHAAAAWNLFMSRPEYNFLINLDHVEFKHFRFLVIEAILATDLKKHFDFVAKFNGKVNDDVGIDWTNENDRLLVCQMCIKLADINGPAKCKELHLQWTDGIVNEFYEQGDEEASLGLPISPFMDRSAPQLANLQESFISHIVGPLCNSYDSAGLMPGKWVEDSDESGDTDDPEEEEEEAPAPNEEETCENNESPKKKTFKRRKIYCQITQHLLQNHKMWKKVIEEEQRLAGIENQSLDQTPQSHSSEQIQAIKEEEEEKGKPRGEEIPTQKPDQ

[2] = molecular target: T3, PDE4D2 (h) (human), Q08499
[3] = molecular target: Ubiquitin carboxy-terminal hydrolase L1, P09936
Chain of Ubiquitin carboxy-terminal hydrolase L1, P09936 (P09936 whole entry): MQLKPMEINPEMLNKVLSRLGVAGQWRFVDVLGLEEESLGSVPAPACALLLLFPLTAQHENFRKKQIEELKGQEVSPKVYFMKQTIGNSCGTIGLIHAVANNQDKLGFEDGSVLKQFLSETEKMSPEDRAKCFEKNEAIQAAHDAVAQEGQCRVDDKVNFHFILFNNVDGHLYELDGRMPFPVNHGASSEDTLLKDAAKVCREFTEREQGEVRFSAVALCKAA

[4] = molecular target: Ubiquitin carboxyl-terminal hydrolase 10, Q14694
Chain of Ubiquitin carboxyl-terminal hydrolase 10, Q14694 (Q14694 whole entry): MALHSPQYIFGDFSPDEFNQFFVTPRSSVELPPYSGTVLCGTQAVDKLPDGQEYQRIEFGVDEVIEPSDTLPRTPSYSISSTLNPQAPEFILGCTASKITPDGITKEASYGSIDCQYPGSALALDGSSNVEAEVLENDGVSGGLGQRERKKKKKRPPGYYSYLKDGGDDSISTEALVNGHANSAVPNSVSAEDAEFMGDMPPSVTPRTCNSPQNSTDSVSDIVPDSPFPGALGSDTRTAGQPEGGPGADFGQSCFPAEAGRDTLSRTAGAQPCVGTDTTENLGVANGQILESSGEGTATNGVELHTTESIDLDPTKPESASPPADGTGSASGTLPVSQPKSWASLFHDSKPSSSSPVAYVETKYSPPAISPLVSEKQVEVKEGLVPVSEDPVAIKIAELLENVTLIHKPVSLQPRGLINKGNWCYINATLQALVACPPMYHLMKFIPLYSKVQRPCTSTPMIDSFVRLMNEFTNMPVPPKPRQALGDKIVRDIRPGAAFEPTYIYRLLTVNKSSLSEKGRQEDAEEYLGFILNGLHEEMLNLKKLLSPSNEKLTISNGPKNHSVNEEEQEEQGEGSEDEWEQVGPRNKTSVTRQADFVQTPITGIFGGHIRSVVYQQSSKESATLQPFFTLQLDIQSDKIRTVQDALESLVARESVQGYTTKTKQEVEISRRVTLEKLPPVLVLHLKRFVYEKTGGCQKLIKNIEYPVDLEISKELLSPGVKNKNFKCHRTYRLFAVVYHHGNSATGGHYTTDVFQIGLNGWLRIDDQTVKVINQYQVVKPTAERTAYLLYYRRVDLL

[5] = molecular target: Ubiquitin carboxyl-terminal hydrolase 14, P54578
Chain of Ubiquitin carboxyl-terminal hydrolase 14, P54578 (P54578 whole entry): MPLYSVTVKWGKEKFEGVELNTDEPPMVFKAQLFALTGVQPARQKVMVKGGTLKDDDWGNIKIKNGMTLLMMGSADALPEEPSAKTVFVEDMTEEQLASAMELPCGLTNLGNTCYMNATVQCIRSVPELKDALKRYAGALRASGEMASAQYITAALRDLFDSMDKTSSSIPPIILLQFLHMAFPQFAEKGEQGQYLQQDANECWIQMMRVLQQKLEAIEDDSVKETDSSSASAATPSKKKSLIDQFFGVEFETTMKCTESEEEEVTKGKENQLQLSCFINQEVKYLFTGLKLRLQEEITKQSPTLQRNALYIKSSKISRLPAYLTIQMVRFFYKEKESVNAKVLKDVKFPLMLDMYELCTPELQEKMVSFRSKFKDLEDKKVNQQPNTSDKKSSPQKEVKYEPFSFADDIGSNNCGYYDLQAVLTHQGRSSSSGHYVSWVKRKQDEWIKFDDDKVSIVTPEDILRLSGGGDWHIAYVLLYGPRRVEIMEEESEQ

[6] = molecular target: Ubiquitin carboxyl-terminal hydrolase 7, Q93009
Chain of Ubiquitin carboxyl-terminal hydrolase 7, Q93009 (Q93009 whole entry): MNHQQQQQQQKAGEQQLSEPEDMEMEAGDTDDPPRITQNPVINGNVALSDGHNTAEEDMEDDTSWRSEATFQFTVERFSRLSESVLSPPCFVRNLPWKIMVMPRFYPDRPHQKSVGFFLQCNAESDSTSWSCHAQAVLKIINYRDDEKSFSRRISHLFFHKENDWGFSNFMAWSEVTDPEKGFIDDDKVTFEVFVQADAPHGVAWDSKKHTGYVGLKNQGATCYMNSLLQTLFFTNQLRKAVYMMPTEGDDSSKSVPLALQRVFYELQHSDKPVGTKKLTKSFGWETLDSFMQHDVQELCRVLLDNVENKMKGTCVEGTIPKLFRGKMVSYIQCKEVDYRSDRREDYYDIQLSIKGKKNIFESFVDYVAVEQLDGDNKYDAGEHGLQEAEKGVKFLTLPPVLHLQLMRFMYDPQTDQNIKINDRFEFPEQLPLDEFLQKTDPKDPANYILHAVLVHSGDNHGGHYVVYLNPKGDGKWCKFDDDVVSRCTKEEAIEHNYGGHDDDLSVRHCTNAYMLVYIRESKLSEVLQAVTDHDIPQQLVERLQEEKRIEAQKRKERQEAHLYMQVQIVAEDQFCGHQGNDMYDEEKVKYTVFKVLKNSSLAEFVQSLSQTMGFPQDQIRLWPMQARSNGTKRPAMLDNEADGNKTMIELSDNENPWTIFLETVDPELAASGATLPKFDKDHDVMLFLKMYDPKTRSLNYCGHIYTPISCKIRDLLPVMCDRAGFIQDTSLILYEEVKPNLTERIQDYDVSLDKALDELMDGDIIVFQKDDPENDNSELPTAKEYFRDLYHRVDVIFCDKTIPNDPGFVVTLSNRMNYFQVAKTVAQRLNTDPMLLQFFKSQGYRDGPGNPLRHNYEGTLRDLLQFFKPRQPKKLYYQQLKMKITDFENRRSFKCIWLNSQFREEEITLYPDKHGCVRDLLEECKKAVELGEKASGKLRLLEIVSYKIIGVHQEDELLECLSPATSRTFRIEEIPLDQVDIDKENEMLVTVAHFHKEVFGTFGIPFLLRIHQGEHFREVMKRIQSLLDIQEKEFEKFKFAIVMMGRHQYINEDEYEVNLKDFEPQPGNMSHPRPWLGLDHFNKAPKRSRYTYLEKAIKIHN

[7] = molecular target: T4, Ubiquitin carboxyl-terminal hydrolase …

| Binder | Percentage inhibition (%) at 1 µM (Caspase-3, P42574) | Percentage inhibition (%) at 10 µM (Caspase-3, P42574) | Percentage inhibition (%) at 1 µM (Caspase-6, P55212) | Percentage inhibition (%) at 10 µM (Caspase-6, P55212) | Percentage inhibition (%) at 1 µM (Cathepsin B, P07858) | Percentage inhibition (%) at 10 µM (Cathepsin B, P07858) | Percentage inhibition (%) at 1 µM (Cathepsin L, P07711) | Percentage inhibition (%) at 10 µM (Cathepsin L, P07711) | Percentage inhibition (%) at 1 µM (Cathepsin S, P25774) | Percentage inhibition (%) at 10 µM (Cathepsin S, P25774) | Percentage inhibition (%) at 1 µM (Cathepsin V, O60911) | Percentage inhibition (%) at 10 µM (Cathepsin V, O60911) | Percentage inhibition (%) at 1 µM (DPP8, Q6V1X1) | Percentage inhibition (%) at 10 µM (DPP8, Q6V1X1) | Percentage inhibition (%) at 1 µM (DPP9, Q86TI2) | Percentage inhibition (%) at 10 µM (DPP9, Q86TI2) | % inhibition of control enzyme activity, compound at 10 µM [1] | % inhibition of control enzyme activity, compound at 10 µM [2] | Percentage inhibition (%) at 1 µM [3] | Percentage inhibition (%) at 10 µM [3] | further results |
| --- | --- | --- | --- | --- | --- | --- | --- | --- | --- | --- | --- | --- | --- | --- | --- | --- | --- | --- | --- | --- | --- |
| B1 | -2% | -1% | 6% | -3% | 1% | 2% | 0% | -6% | -10% | -23% | -1% | -1% | 1% | 11% | -1% | -5% | -37% | -4% | -4% | 4% | Percentage inhibition (%) at 1 µM [4]: 1%; Percentage inhibition (%) at 10 µM [4]: -1%; Percentage inhibition (%) at 1 µM [5]: 1%; Percentage inhibition (%) at 10 µM [5]: 2%; Percentage inhibition (%) at 1 µM [6]: 1%; Percentage inhibition (%) at 10 µM [6]: 1%; Percentage inhibition (%) at 1 µM [7]: 2%; Percentage inhibition (%) at 10 µM [7]: 1% |
| B2 | 1% | -2% | 1% | -1% | 26% | 36% | 3% | 6% | 3% | 18% | 1% | -18% | 1% | 5% | -1% | 0% | -3% | -5% | -2% | 4% | Percentage inhibition (%) at 1 µM [4]: -2%; Percentage inhibition (%) at 10 µM [4]: 5%; Percentage inhibition (%) at 1 µM [5]: -1%; Percentage inhibition (%) at 10 µM [5]: 5%; Percentage inhibition (%) at 1 µM [6]: 5%; Percentage inhibition (%) at 10 µM [6]: 5%; Percentage inhibition (%) at 1 µM [7]: -3%; Percentage inhibition (%) at 10 µM [7]: 6% |
